# Data taken from publication PMC7933954 (EMBO Molecular Medicine, 2021).
# Target: T1, mouse DR5 (Mus musculus (4T1: BALB/c; MC38: …, UniProt Q9QZM4)
# T1 construct: mouse DR5, endogenous on the surface of 4T1 and MC38 cells; also called muDR5; murine DR5; source: endogenous, on murine 4T1 and MC38 cells
# Assay: flow cytometry on cells; antibody on murine 4T1 and MC38 cells, FACS histograms
# Settings: one partner purified
# T1 sequence (Q9QZM4 53-381): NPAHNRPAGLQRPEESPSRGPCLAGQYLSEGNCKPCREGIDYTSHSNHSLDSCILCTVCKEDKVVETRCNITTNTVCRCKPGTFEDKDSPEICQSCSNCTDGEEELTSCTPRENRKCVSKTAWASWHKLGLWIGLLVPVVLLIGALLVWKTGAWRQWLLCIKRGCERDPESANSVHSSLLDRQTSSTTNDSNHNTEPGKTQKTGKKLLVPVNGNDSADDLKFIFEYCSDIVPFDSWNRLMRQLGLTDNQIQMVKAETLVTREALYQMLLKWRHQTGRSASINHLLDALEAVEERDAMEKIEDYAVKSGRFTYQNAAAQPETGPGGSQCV
binder,measurement,value
"MD5‐1 (antibody, V domains shown, heavy chain of MD5‐1; light chain of MD5‐1; for efficacy studies it is said to carry IgG1 KO‐Fc and S267E mutations; also called anti‐mouse DR5 antibody (MD5‐1); murine DR5 agonist MD5‐1) VH: QIQLQESGPGLVKPAQSLSLTCSITGFPITAGGYWWTWIRQFPGQKLEWMGYIYSSGSTNYNPSIKSRISITRDTAKNQFFLQLNSVTTEEDTAIYYCARAGTSYSGFFDSWGQGTLVTVSS VL: DIQVTQSPSLLSASFGDKVTINCLVTQDITYYLSWYQQKSGQPPTLLIYNGNSLQSGVPSRFSGQYSGRTFTLSLSSLEPEDAGTYYCLQHYSVPFTFGGGTRLEIK",binding result,binds
